Here are results for three molecules from patent US20200262920A1 (AMPHIVENA THERAPEUTICS, published 2020).

Experiment [1] addresses T1, human CD33 (human, UniProt P20138 18-364).
T1 construct: whole, on cells; also called huCD33; CD33 on HL-60, KG-1, KG-1a, U-937 cells
In words: flow cytometry, HL-60 cells. On the technique in general: In flow cytometry, cells or beads pass a laser one at a time.

The target in experiment [2] is T1, human CD33. The experiment can be described thus: flow cytometry titration, U-937 cells. Here is the method:
(§1) Cells were incubated with 100 μL of serial dilutions of CD33/CD3 2×2 T-cell engagers. After washing three times with FACS buffer the cells were incubated with 0.1 mL of 10 μg/mL mouse monoclonal anti-His antibody in the same buffer for 45 min on ice. After a second washing cycle, the cells were incubated with 0.1 mL of 15 μg/mL FITC-conjugated goat anti-mouse IgG antibodies under the same conditions as before. As a control, cells were incubated with the anti-His IgG followed by the FITC-conjugated goat anti-mouse IgG antibodies without anti-CD33 2×2 T-cell engagers. The cells were then washed again and resuspended in 0.2 mL of FACS buffer containing 2 μg/mL propidium iodide (PI) in order to exclude dead cells. The fluorescence of 1×10⁴ living cells was measured using a Beckman-Coulter FC500 MPL flow cytometer using the MXP software (Beckman-Coulter, Krefeld, Germany) or a Millipore Guava EasyCyte flow cytometer using the Incyte software (Merck Millipore, Schwalbach, Germany). Mean fluorescence intensities of the cell samples were calculated using CXP software (Beckman-Coulter, Krefeld, Germany) or Incyte software (Merck Millipore, Schwalbach, Germany). After subtracting the fluorescence intensity values of the cells stained with the secondary and tertiary reagents alone the values were used for calculation of the KD values with the equation for one-site binding (hyperbola) of the GraphPad Prism (version 6.00 for Windows, GraphPad Software, La Jolla Calif. USA). […]

Experiment [3] deals with T2, human CD3 (human, UniProt P07766 23-207; P09693 23-182; P04234 22-171; P20963 22-164).
T2 construct: whole, on cells; the description names the epsilon chain only 'in certain instances'; also called hu CD3; CD3 on T cells
T2 sequence (P07766 23-207, chain 1 of 4): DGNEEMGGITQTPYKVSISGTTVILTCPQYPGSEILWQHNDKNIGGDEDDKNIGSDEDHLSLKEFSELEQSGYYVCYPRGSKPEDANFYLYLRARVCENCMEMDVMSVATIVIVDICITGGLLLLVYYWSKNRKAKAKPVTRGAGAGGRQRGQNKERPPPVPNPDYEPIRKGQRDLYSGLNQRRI
T2 sequence (P09693 23-182, chain 2 of 4): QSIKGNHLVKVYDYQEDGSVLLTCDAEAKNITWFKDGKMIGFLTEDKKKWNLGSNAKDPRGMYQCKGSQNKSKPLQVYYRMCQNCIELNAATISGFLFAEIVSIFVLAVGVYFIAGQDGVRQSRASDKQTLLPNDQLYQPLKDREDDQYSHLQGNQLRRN
T2 sequence (P04234 22-171, chain 3 of 4): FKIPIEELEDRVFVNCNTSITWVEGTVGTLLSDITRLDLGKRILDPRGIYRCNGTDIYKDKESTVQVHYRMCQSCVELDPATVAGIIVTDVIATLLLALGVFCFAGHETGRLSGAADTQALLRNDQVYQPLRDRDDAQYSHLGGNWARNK
T2 sequence (P20963 22-164, chain 4 of 4): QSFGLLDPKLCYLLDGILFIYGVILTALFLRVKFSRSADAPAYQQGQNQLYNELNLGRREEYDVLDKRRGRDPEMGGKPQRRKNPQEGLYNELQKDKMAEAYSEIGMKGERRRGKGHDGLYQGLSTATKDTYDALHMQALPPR
In words: flow cytometry, human T-cells.

Experiment [4] concerns the target T1, human CD33. The experiment can be described thus: cell-based or functional assay.
The target of experiment [5] is T2, human CD3. In words: cell-based or functional assay.
In experiment [6] the target is T2, human CD3. The experiment can be described thus: flow cytometry titration, T cells (human CD3+).
The target of experiment [7] is T1, human CD33. The experiment can be described thus: flow cytometry titration, HL-60 cells. Here is the method: as §1
Experiment [8] deals with T1, human CD33. The experiment can be described thus: flow cytometry titration, KG-1 cells. The protocol:
as §1

For experiment [9], the target named is T1, human CD33. The experiment can be described thus: cell-based or functional assay. The source holds these as a separate data set.

“And” between values parts separate entries of the source, which are not always exact repeats. Equal values may be shown once.

T1 sequence (P20138 18-364): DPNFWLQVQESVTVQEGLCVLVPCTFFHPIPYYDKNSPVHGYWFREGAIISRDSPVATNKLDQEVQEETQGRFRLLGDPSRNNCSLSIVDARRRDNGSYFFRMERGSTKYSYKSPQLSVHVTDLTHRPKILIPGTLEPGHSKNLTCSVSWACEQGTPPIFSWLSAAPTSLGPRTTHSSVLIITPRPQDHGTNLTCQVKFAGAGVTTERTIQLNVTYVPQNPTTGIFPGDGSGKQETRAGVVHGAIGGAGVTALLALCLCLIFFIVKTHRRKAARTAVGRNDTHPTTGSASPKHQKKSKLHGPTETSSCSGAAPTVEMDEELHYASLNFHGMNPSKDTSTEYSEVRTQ

B1: CD33/CD3 2×2 T-cell engager 06 (bispecific antibody)
chain: DIQMTQSPSSLSASVGDRVTITCRSSTGAVTTSNYANWVQQKPGKAPKGLIGGTNKRAPGVPARFSGSGSGTDFTLTISSLQPEDFATYYCALWYSNLWVFGQGTKVEIKGGSGGSQVQLVQSGAEVKKPGASVKVSCKASGYTFTSYDINWVRQAPGQGLEWMGWMNPNSGNTGFAQKFQGRVTMTRDTSTSTVYMELSSLRSEDTAVYYCARDRANTDYSLGMDVWGQGTLVTVSSGGSGGQSVLTQPPSASGTPGQRVTISCSGSRSNIGSNTVNWYQQLPGTAPKLLIYGNNQRPSGVPDRFSGSKSGTSASLAISGLQSEDEADYYCATWDDSLIGWVFGGGTKLTVLGGSGGSEVQLVESGGGLVQPGGSLRLSCAASGFTFSTYAMNWVRQAPGKGLEWVGRIRSKYNNYATYYADSVKDRFTISRDDSKNSLYLQMNSLKTEDTAVYYCARHGNFGNSYVSWFAYWGQGTLVTVSSAAAGSHHHHHH
notes: Non-covalent homodimer; also called 2×2 T-cell engager 6
With B1, the Kd (commonly the equilibrium constant for the complex coming apart) in the experiment with human CD33 [1] came out at 0.4 nM; with human CD33 [2], 1.6 nM; with human CD3 [3] it was 86.3 nM; with human CD3 [6], 86.3 nM; with human CD33 [7], 0.4 nM; with human CD33 [8] it was 0.5 nM. The “EC50 on HL-60 (cytotoxicity)” value with human CD33 [4] came out at 0.0016 nM. Moreover, in the experiment with human CD3 [5], the “CD25 Induction EC50” value was determined as 0.039 nM. Also, the “CD69 Induction EC50” value in the experiment with human CD3 [5] came to 0.021 nM. Also, the “T cell Proliferation in PBMC EC50” value with human CD3 [5] worked out at 0.048 nM.

B2: CD33/CD3 2×2 T-cell engager 24 (bispecific antibody)
chain: DIQMTQSPSSLSASVGDRVTITCRSSTGAVTTSNYANWVQQKPGKAPKALIGGTNKRAPGVPSRFSGSLIGDKATLTISSLQPEDFATYYCALWYSNLWVFGQGTKVEIKGGSGGSQVQLVQSGAEVKKPGSSVKVSCKASGGTFDSYAISWVRQAPGQGLEWMGGIIPIFGSAHYSQKFQGRVTITADESTSTAYMELSSLRSEDTAVYYCAREYYYDSSEWAFDIWGQGTLVTVSSGGSGQSVLTQPPSASGTPGQRVTISCSGSSSNIGDNVVNWYQQLPGTAPKLLIYSTNKRPSGVPDRFSGSKSGSSASLAISGLQSEDEADYYCAAWDDSLSAYVFGGGTKLTVLGGSGGSEVQLVESGGGLVQPGGSLRLSCAASGFTFSTYAMNWVRQAPGKGLEWVGRIRSKYNNYATYYADSVKDRFTISRDDSKNSLYLQMNSLKTEDTAVYYCARHGNFGNSYVSYFAYWGQGTLVTVSSAAAGSHHHHHH
notes: Non-covalent homodimer
For the molecule B2, the Kd is 5.6 nM with human CD33 [1]; 39.5 nM with human CD33 [2]; 2.3 nM with human CD3 [3]; 2.3 nM in the experiment with human CD3 [6]; 5.6 nM with human CD33 [7]; 12.4 nM in the experiment with human CD33 [8]. The “EC50 on HL-60 (cytotoxicity)” value with human CD33 [4] turned out to be 0.0096 nM. In addition, the “CD69 Induction EC50” value with human CD3 [5] was 0.057 nM. Besides, the “T cell Proliferation in PBMC EC50” value with human CD3 [5] is 0.264 nM.

B3: CD33/CD3 2×2 T-cell engager 14 (bispecific antibody)
chain: DIQMTQSPSSLSASVGDRVTITCRSSTGAVTTSNYANWVQQKPGKAPKALIGGTNKRAPGVPSRFSGSLIGDKATLTISSLQPEDFATYYCALWYSNLWVFGQGTKVEIKGGSGGSQVQLVQSGAEVKKPGASVKVSCKASGYTFTSYDINWVRQAPGQGLEWMGWMNPNSGNTGFAQKFQGRVTMTRDTSTSTVYMELSSLRSEDTAVYYCARDRANTDFSYGMDVWGQGTLVTVSSGGSGQSVLTQPPSASGTPGQRVTISCSGSRSNIGSNTVNWYQQLPGTAPKLLIYGNNQRPSGVPDRFSGSKSGTSASLAISGLQSEDEADYYCATWDDSLIGWVFGGGTKLTVLGGSGGSEVQLVESGGGLVQPGGSLRLSCAASGFTFSTYAMNWVRQAPGKGLEWVGRIRSKYNNYATYYADSVKDRFTISRDDSKNSLYLQMNSLKTEDTAVYYCARHGNFGNSYVSYFAYWGQGTLVTVSSAAAGSHHHHHH
notes: Non-covalent homodimer
Molecule B3 returned a Kd with human CD33 [1] of 0.3 nM. This molecule also registered a Kd in the experiment with human CD33 [2] of 1.2 nM. This molecule showed a Kd with human CD3 [3] of 2.1 nM. The “EC50 on HL-60 (cytotoxicity)” value with human CD33 [4] came out at 0.0016 nM. In addition, in the experiment with human CD3 [5], the “CD25 Induction EC50” value is 0.01 nM, the “CD69 Induction EC50” value was found to be 0.007 nM and the “T cell Proliferation in PBMC EC50” value stood at 0.006 nM. In the experiment with human CD33 [9], the “EC50, cytotoxicity on HL-60” value was 1.6 pM and 168 pg/mL; the “EC50, cytotoxicity on KG-1” value is 2.6 pM and 273 pg/mL; the “EC50, cytotoxicity on U-937” value is 3.6 pM and 378 pg/mL; the “EC50, cytotoxicity, mean of HL-60, U-937, KG-1” value is 2.6 pM and 273 pg/mL. In the experiment with human CD3 [6], this molecule yielded a Kd of 2.1 nM. For the same molecule, the affinity in the experiment with human CD33 [7], expressed as Kd, was 0.3 nM. Further, the Kd with human CD33 [8] was determined as 0.3 nM.
